According to publication doi:10.1101/2024.11.03.621705 (bioRxiv, 2024):

Target: the molecule itself
Test: cryo-EM structure

B1: mouse TRPC5 with a 210-amino-acid C-terminal truncation, with N-terminal 3xFlag tag and MBP (recombinant plasmid FMC5) (domain or fragment, UniProt Q9QX29 1-765, looked up)
chain: MAQLYYKKVNYSPYRDRIPLQIVRAETELSAEEKAFLSAVEKGDYATVKQALQEAEIYYNVNINCMDPLGRSALLIAIENENLEIMELLLNHSVYVGDALLYAIRKEVVGAVELLLSYRKPSGEKQVPTLMMDTQFSEFTPDITPIMLAAHTNNYEIIKLLVQKRVTIPRPHQIRCNCVECVSSSEVDSLRHSRSRLNIYKALASPSLIALSSEDPILTAFRLGWELKELSKVENEFKAEYEELSQQCKLFAKDLLDQARSSRELEIILNHRDDHSEELDPQKYHDLAKLKVAIKYHQKEFVAQPNCQQLLATLWYDGFPGWRRKHWVVKLLTCMTIGFLFPMLSIAYLISPRSNLGLFIKKPFIKFICHTASYLTFLFMLLLASQHIVRTDLHVQGPPPTVVEWMILPWVLGFIWGEIKEMWDGGFTEYIHDWWNLMDFAMNSLYLATISLKIVAYVKYNGSRPREEWEMWHPTLIAEALFAISNILSSLRLISLFTANSHLGPLQISLGRMLLDILKFLFIYCLVLLAFANGLNQLYFYYETRAIDEPNNCKGIRCEKQNNAFSTLFETLQSLFWSVFGLLNLYVTNVKARHEFTEFVGATMFGTYNVISLVVLLNMLIAMMNNSYQLIADHADIEWKFARTKLWMSYFDEGGTLPPPFNIIPSPKSFLYLGNWFNNTFCPKRDPDGRRRRHNLRSFTERHADSLIQNQHYQEVIRNLVKRYVAAMIRNSKTNEGLTEENFKELKQDISSFRYEVLDLLGNRK
**Q.** Does B1 bind?
**A.** binds
